Laboratory results from the supplement of paper PMC10065799, “High-throughput profiling of sequence recognition by tyrosine kinases and SH2 domains using bacterial peptide display” (eLife, 2023).

Experiments:
[1] = biological target: Grb2 SH2 (UniProt P62993); assay: SH2 binding enrichment of the phosphorylated peptide, bacterial display (enrichment ratio); higher = better substrate or ligand; peptides without Tyr show the background
[2] = biological target: SHP2-C SH2; assay: as above
[3] = biological target: c-Src SH2; assay: as above
[4] = biological target: Jak2 (UniProt O60674); assay: phosphorylation enrichment, bacterial display (enrichment ratio); higher = better substrate or ligand; peptides without Tyr show the background
[5] = biological target: MERTK (UniProt Q12866); assay: as above
[6] = tested on: c-Abl (mouse); assay: as above
[7] = tested on: Fer (mouse); assay: as above
[8] = biological target: FGFR1 (UniProt P11362); assay: as above
[9] = biological target: Fes (UniProt P07332); assay: as above
[10] = biological target: FGFR3 (UniProt P22607); assay: as above
[11] = tested on: c-Src; assay: as above
[12] = tested on: AncSZ; assay: as above
[13] = biological target: Fyn (UniProt P06241); assay: as above
[14] = biological target: EPHB1 (UniProt P54762); assay: as above
[15] = biological target: Hck (UniProt P08631); assay: as above
[16] = biological target: EPHB2 (UniProt P29323); assay: as above
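Wherever SH2 binding enrichment of the phosphorylated peptide, bacterial display is given: peptide library displayed on the E. coli surface as eCPX fusions, selected cells deep-sequenced, score is each peptide's frequency after selection divided by its frequency in the input.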
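Wherever phosphorylation enrichment, bacterial display is given: 11-residue human phosphosite peptides and single-mutation variants displayed on the E. coli surface, counted by deep sequencing, each peptide's frequency after selection divided by its frequency in the unselected input library; frequency after pTyr selection over input frequency; kinase dosed for 20-30% of maximal phosphorylation in three min.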

Chain of EPHB1 (P54762 whole entry, looked up): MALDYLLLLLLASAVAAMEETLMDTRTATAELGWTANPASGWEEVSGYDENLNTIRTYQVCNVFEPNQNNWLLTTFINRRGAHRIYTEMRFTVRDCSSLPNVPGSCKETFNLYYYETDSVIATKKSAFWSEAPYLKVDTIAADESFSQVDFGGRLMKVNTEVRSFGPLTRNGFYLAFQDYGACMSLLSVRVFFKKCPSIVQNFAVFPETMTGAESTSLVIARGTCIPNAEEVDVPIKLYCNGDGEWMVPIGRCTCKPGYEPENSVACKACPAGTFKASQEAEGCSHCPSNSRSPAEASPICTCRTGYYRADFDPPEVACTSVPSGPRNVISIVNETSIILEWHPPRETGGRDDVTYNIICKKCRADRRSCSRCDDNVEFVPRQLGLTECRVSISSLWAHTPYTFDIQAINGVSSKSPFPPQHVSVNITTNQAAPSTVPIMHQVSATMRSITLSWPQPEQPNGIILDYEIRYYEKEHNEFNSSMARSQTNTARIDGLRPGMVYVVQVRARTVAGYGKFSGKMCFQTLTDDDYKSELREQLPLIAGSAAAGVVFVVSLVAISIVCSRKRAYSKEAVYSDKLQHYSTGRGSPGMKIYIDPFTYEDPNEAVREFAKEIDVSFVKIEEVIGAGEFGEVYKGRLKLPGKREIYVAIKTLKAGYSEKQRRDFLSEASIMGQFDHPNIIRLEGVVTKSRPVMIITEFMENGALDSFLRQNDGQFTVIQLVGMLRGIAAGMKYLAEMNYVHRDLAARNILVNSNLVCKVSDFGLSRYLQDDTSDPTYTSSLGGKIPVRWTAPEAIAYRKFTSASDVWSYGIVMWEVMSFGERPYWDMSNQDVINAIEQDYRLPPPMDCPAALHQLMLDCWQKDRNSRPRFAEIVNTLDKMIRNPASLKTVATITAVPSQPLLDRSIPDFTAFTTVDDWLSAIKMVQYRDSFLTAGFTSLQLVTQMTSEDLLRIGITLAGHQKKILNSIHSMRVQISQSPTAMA
Chain of Jak2 (O60674 whole entry, looked up): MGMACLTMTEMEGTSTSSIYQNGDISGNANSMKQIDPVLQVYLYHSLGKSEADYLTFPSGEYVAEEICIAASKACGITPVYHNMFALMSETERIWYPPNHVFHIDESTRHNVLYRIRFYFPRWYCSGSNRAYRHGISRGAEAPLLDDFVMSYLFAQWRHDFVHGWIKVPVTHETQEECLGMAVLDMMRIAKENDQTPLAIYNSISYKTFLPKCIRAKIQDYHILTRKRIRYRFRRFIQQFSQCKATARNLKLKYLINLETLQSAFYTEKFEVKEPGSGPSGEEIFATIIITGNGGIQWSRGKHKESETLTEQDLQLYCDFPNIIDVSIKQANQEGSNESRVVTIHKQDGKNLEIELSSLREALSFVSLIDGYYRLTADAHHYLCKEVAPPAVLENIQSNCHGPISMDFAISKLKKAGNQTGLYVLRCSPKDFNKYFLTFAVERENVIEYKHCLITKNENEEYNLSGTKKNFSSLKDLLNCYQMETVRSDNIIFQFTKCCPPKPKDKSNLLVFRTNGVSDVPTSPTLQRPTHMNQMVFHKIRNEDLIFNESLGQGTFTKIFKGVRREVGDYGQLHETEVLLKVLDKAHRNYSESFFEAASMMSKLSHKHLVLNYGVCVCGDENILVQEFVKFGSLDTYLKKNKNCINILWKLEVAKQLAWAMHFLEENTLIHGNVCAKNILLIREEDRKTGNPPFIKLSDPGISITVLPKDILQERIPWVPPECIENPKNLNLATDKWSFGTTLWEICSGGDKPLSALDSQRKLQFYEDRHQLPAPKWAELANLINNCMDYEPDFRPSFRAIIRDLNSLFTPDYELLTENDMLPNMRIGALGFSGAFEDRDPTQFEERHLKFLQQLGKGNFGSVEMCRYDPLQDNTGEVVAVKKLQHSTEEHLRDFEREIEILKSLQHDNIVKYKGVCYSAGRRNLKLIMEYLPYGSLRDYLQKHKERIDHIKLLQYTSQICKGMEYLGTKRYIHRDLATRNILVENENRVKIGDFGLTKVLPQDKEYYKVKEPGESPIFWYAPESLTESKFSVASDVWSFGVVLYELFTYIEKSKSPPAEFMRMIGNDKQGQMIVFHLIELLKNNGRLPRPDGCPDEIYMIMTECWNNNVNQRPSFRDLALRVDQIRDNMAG
Chain of EPHB2 (P29323 whole entry, looked up, the tested form may be a part): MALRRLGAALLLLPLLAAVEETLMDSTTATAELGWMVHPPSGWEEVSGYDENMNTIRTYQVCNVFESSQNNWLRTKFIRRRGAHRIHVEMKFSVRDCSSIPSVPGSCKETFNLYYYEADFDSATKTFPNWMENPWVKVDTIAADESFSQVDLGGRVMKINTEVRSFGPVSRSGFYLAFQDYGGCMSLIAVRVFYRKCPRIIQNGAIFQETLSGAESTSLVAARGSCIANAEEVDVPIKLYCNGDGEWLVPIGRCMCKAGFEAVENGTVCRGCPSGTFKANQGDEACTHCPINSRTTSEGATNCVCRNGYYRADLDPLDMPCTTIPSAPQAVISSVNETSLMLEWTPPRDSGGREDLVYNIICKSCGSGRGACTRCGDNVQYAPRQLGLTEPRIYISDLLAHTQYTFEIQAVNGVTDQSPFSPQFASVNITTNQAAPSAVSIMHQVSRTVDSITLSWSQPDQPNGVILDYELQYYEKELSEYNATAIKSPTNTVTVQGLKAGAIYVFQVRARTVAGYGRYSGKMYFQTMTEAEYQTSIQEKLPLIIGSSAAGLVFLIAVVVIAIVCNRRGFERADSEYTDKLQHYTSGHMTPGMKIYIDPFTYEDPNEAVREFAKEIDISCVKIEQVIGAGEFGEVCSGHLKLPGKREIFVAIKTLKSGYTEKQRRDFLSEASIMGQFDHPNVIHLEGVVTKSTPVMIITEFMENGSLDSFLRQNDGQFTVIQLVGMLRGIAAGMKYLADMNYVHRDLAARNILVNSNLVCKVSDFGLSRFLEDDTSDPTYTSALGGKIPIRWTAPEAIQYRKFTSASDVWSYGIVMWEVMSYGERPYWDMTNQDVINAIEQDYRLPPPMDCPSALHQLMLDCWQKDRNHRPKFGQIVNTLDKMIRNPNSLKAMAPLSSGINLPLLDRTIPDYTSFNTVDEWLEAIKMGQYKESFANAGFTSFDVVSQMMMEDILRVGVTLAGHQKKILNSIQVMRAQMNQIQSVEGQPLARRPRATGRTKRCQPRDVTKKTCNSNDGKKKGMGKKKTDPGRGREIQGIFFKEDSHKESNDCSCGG
Chain of FGFR3 (P22607 whole entry, looked up): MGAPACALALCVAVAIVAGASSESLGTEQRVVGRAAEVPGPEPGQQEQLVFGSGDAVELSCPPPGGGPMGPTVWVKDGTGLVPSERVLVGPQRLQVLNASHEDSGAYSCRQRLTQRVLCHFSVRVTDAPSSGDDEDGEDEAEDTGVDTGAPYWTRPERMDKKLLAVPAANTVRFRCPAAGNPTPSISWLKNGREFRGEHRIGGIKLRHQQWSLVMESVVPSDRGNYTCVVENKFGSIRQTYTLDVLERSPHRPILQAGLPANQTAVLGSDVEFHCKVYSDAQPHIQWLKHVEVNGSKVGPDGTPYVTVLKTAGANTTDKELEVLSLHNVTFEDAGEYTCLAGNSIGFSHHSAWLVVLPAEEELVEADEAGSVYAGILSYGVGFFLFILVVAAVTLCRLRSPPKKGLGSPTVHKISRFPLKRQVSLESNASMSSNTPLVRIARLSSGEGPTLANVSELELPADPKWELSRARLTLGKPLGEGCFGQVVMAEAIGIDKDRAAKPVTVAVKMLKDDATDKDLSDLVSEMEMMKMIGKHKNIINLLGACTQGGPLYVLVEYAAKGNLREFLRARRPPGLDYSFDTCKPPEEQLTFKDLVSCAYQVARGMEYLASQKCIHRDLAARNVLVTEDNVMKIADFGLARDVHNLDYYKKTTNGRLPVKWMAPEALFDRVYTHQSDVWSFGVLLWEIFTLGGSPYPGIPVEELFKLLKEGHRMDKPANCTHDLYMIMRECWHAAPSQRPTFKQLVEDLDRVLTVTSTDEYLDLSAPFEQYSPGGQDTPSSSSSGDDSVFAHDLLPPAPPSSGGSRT
Chain of Fes (P07332 whole entry, looked up): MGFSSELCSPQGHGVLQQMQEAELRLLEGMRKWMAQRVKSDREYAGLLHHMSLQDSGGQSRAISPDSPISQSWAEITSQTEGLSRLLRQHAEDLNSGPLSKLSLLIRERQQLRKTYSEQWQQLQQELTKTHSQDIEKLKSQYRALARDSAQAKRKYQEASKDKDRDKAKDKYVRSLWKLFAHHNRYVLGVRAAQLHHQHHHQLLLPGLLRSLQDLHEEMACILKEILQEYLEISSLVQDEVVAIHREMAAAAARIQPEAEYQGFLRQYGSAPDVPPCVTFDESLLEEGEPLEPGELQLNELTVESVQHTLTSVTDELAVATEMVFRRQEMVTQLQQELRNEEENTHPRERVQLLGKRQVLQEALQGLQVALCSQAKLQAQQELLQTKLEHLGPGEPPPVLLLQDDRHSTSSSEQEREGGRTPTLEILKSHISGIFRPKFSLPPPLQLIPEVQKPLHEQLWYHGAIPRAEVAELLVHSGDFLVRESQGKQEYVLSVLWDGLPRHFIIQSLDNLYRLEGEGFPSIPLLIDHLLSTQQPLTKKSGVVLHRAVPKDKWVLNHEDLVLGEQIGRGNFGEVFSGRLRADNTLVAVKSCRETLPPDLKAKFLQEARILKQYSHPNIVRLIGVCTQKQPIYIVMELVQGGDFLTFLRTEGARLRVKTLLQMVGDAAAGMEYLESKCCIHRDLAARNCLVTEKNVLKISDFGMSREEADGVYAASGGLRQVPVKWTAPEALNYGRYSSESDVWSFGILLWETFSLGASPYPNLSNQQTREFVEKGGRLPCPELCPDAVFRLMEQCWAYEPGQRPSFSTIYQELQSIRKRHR

| SH2 binding enrichment [1] | SH2 binding enrichment [2] | SH2 binding enrichment [3] | Sequence | phosphorylation enrichment [4] | phosphorylation enrichment [5] | phosphorylation enrichment [6] | phosphorylation enrichment [7] | phosphorylation enrichment [8] | phosphorylation enrichment [9] | phosphorylation enrichment [10] | phosphorylation enrichment [11] | phosphorylation enrichment [12] | phosphorylation enrichment [13] | phosphorylation enrichment [14] | phosphorylation enrichment [15] | phosphorylation enrichment [16] |
| --- | --- | --- | --- | --- | --- | --- | --- | --- | --- | --- | --- | --- | --- | --- | --- | --- |
| 1.02 | 1.62 | 0.849 | FTAVGYHKHIT [NOMO1_Y1137] | 0.524 | 0.33 | 0.569 | 0.48 | 0.485 | 0.685 | 0.614 | 0.312 | 0.649 | 0.432 | 0.382 | 0.482 | 0.414 |
| 0.867 | 1.1 | 0.398 | PLAVPYLDKPP [JMJD7_Y31] | 0.742 | 0.614 | 0.658 | 0.614 | 0.504 | 1.06 | 0.769 | 0.549 | 0.825 | 0.46 | 0.355 | 0.711 | 0.608 |
| 1.16 | 1.4 | 0.798 | IGSQRYKLGVR [RB1_Y446] | 0.436 | 0.306 | 0.41 | 0.322 | 0.369 | 0.426 | 0.364 | 0.356 | 0.447 | 0.332 | 0.336 | 0.31 | 0.332 |
| 1.02 | 0.817 | 0.557 | HKDNNYVSMWF [PAPOLG_Y432] | 1.01 | 1.5 | 0.654 | 2.8 | 3.98 | 1.39 | 2.75 | 0.666 | 1.36 | 0.77 | 6.89 | 0.636 | 4.55 |
| 0.818 | 0.616 | 0.521 | GIVEDYRPPFF [ACVRL1_Y421_YF] | 0.814 | 0.417 | 0.701 | 0.443 | 0.468 | 0.899 | 0.667 | 0.42 | 0.825 | 0.464 | 0.497 | 0.413 | 0.498 |
| 0.944 | 0.833 | 0.44 | INSLKYAFNIS [EIF2B5_Y583_YF] | 0.809 | 0.349 | 0.632 | 0.385 | 0.451 | 0.818 | 0.567 | 0.379 | 0.722 | 0.311 | 0.438 | 0.424 | 0.475 |
| 0.869 | 0.551 | 0.378 | SNYRAYATEPH [TNNI3_Y29] | 0.435 | 0.397 | 0.503 | 0.379 | 0.422 | 0.475 | 0.447 | 0.362 | 0.49 | 0.404 | 0.372 | 0.382 | 0.452 |
| 0.716 | 0.838 | 2.31 | HNVAIYEGYAL [ACTC1_Y168_P166A] | 2.17 | 6.65 | 3.44 | 19.7 | 0.878 | 2.5 | 0.969 | 17.1 | 2.26 | 15.4 | 15.8 | 12.8 | 22.6 |
| 1.47 | 1.14 | 0.883 | CEHRGFLYLAI [TEK_Y897_Y897F] | 0.801 | 0.442 | 0.947 | 0.545 | 0.419 | 1.16 | 0.698 | 0.564 | 0.971 | 0.372 | 0.464 | 0.453 | 0.466 |
| 0.97 | 0.887 | 0.672 | DESEDCRDTVV [CNNM3_Y456_Y456C] | 1.03 | 0.518 | 0.777 | 0.515 | 0.589 | 1.11 | 0.723 | 0.474 | 1.22 | 0.528 | 0.788 | 0.587 | 0.597 |
| 1.45 | 1.64 | 3.07 | CTTIHYNYMCK [TP53_Y234_N239K] | 0.674 | 0.456 | 0.551 | 0.5 | 0.547 | 0.826 | 0.61 | 0.371 | 0.736 | 0.482 | 0.54 | 0.473 | 0.562 |
| 1.05 | 0.709 | 0.399 | RKGIRYLTSGL [PIGA_Y82] | 0.657 | 0.57 | 0.438 | 0.368 | 0.47 | 0.668 | 0.688 | 0.648 | 0.698 | 0.434 | 0.533 | 0.645 | 0.437 |
| 0.852 | 0.76 | 0.546 | SYPREYGSQEG [RBM10_Y48] | 0.673 | 0.409 | 0.586 | 0.414 | 0.47 | 0.826 | 0.519 | 0.413 | 0.756 | 0.424 | 0.515 | 0.477 | 0.487 |
| 0.986 | 10.8 | 2.8 | YSSLGYPLPEG [ZSWIM4_Y87_P89L] | 0.785 | 7.91 | 0.978 | 0.687 | 1.28 | 0.904 | 1.06 | 1.57 | 1.01 | 2.63 | 0.53 | 2.05 | 0.758 |
| 0.771 | 0.639 | 0.456 | LWQSIYNLDAE [TNNT2_Y251_E254D] | 0.981 | 0.497 | 0.706 | 0.513 | 0.658 | 1.2 | 0.784 | 6.55 | 1.38 | 9.69 | 0.883 | 6.38 | 1.18 |
| 0.779 | 0.662 | 0.557 | SDGHEYIYVDP [PDGFRB_Y579] | 1.62 | 0.92 | 1.6 | 1.66 | 8.64 | 0.988 | 5.43 | 2 | 3.82 | 1.07 | 2.17 | 1.2 | 1.72 |
| 0.883 | 0.728 | 0.644 | LVSCAYQVARG [FGFR1_Y605] | 0.657 | 0.424 | 0.641 | 0.505 | 0.462 | 0.89 | 0.577 | 0.577 | 0.867 | 0.487 | 0.61 | 0.609 | 0.612 |

| SH2 binding enrichment [1] | SH2 binding enrichment [2] | SH2 binding enrichment [3] | Sequence | phosphorylation enrichment [4] | phosphorylation enrichment [5] | phosphorylation enrichment [6] | phosphorylation enrichment [7] | phosphorylation enrichment [8] | phosphorylation enrichment [9] | phosphorylation enrichment [10] | phosphorylation enrichment [11] | phosphorylation enrichment [12] | phosphorylation enrichment [13] | phosphorylation enrichment [14] | phosphorylation enrichment [15] | phosphorylation enrichment [16] |
| --- | --- | --- | --- | --- | --- | --- | --- | --- | --- | --- | --- | --- | --- | --- | --- | --- |
| 1.14 | 0.673 | 0.585 | KQQEIYQELTQ [CD209_Y239] | 0.917 | 4.81 | 1.77 | 3.56 | 3.1 | 1.07 | 2.3 | 5.59 | 1.35 | 6.33 | 5.8 | 6.43 | 3.03 |
| 0.565 | 0.641 | 0.599 | RRNVYYYSYLL [PTEN_Y177_Y174N] | 2.42 | 8.2 | 0.616 | 0.556 | 6.81 | 0.796 | 4.21 | 1.79 | 1.16 | 1.14 | 1.74 | 1.13 | 0.707 |
| 0.948 | 0.776 | 0.471 | LSGFCYRLSDQ [PDCD6_Y124_G123C] | 1.53 | 0.566 | 1.34 | 0.816 | 0.932 | 1.46 | 1.33 | 0.607 | 1.66 | 0.928 | 1.08 | 0.804 | 1.28 |
| 0.844 | 0.715 | 0.453 | LDAGEYCVPRG [BEX1_Y43] | 1.05 | 0.866 | 3.62 | 1.47 | 1.32 | 2.01 | 1.73 | 0.816 | 8.78 | 1.26 | 3.38 | 1.57 | 3.87 |
| 0.647 | 0.638 | 0.416 | FSNVLYRPRGA [TMIGD2_Y197_YF] | 0.478 | 0.418 | 0.611 | 0.479 | 0.388 | 0.845 | 0.43 | 0.477 | 0.695 | 0.437 | 0.415 | 0.41 | 0.526 |
| 0.796 | 0.674 | 0.393 | IATAIYSGDKI [UGGT2_Y823] | 0.6 | 0.455 | 0.422 | 0.396 | 0.421 | 0.671 | 0.482 | 2.69 | 0.543 | 2.11 | 0.434 | 2.38 | 0.432 |
| 0.789 | 0.74 | 0.361 | FLNSIYQSRDE [ROS1_Y2227_K2228Q] | 0.791 | 0.489 | 0.775 | 0.548 | 0.353 | 0.764 | 0.785 | 4.63 | 0.743 | 4.07 | 0.533 | 4.33 | 0.441 |
| 0.859 | 0.694 | 0.539 | FEREQYADRTR [RBM4_Y355_A359T_YF] | 0.582 | 0.426 | 0.588 | 0.436 | 0.46 | 0.622 | 0.429 | 0.419 | 0.625 | 0.412 | 0.398 | 0.459 | 0.478 |
| 0.588 | 0.524 | 0.366 | TLGPFYPSLLF [CRYAA_Y18_R21L] | 0.776 | 0.452 | 0.667 | 0.544 | 0.646 | 1.03 | 1.09 | 0.455 | 0.865 | 0.535 | 0.687 | 0.51 | 0.541 |
| 1.78 | 1.9 | 2.4 | CTTILYNYMCN [TP53_Y234_H233L] | 1.16 | 2.36 | 0.615 | 1.2 | 0.94 | 1.06 | 0.894 | 1.24 | 1.18 | 0.745 | 0.958 | 1.14 | 0.766 |
| 0.868 | 0.689 | 7.91 | MHLRQYELLGG [GNAS_Y391] | 0.634 | 0.773 | 0.541 | 0.507 | 0.558 | 0.869 | 0.705 | 0.516 | 0.663 | 0.464 | 0.75 | 0.506 | 0.453 |
| 0.892 | 0.861 | 0.528 | VGTKRYRAPEV [ACVRL1_Y375_M376R] | 0.351 | 0.339 | 0.499 | 0.364 | 0.298 | 0.565 | 0.363 | 0.335 | 0.443 | 0.379 | 0.308 | 0.305 | 0.338 |
| 0.685 | 0.631 | 0.469 | SIIKDYFHRGT [GATM_Y203_A208T] | 0.551 | 0.365 | 0.514 | 0.465 | 0.476 | 0.62 | 0.542 | 0.569 | 0.656 | 0.433 | 0.42 | 0.463 | 0.604 |
| 0.722 | 0.657 | 0.519 | VSSPKYGSNDE [TMCC2_Y473_D476N] | 0.857 | 0.454 | 0.801 | 0.509 | 0.406 | 0.912 | 0.619 | 0.514 | 0.867 | 0.445 | 0.452 | 0.426 | 0.536 |
| 0.813 | 0.584 | 1.43 | DYTEAYNPKIK [CLK1_Y305] | 0.641 | 0.419 | 0.678 | 0.358 | 0.624 | 0.913 | 0.592 | 0.483 | 1.02 | 0.456 | 0.422 | 0.596 | 0.453 |
| 0.835 | 0.805 | 0.464 | TLLAFYMGNFS [GLB1_Y552_P549L] | 1.59 | 0.625 | 1.06 | 0.559 | 0.435 | 1.49 | 0.839 | 0.98 | 1.18 | 0.408 | 0.943 | 0.62 | 0.661 |
